Substitutions are numbered along the chain they refer to. Values belong to the molecule of their own block, whether it stands above or below them.
Experiments:
Assay in all cases: flow cytometry, CHO-K1; sub-column 2 of 2
W90A = target: T1, W90A
T1 construct: also called hCD27 W90A
T1 receptor: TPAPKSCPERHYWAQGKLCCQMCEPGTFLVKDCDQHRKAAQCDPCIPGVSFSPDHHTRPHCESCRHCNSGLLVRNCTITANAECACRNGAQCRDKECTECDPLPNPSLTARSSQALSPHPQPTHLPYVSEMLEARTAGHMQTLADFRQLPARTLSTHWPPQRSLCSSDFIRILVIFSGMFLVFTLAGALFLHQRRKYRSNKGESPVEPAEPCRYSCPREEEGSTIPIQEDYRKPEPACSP

Q15A = target: T2, Q15A
T2 construct: also called hCD27 Q15A
T2 receptor: T1 receptor with Q15A, A90W

G16A = target: T3, G16A
T3 construct: also called hCD27 G16A
T3 receptor: T1 receptor with G16A, A90W

Q91A = target: T4, Q91A
T4 construct: also called hCD27 Q91A
T4 receptor: T1 receptor with A90W, Q91A

N88A = target: T5, N88A
T5 construct: also called hCD27 N88A
T5 receptor: T1 receptor with N88A, A90W

V49A = target: T6, V49A
T6 construct: also called hCD27 V49A
T6 receptor: T1 receptor with V49A, A90W

P44A = target: T7, P44A
T7 construct: also called hCD27 P44A
T7 receptor: T1 receptor with P44A, A90W

S63A = target: T8, S63A
T8 construct: also called hCD27 S63A
T8 receptor: T1 receptor with S63A, A90W

K31A = target: T9, K31A
T9 construct: also called hCD27 K31A
T9 receptor: T1 receptor with K31A, A90W

I46A = target: T10, I46A
T10 construct: also called hCD27 I46A
T10 receptor: T1 receptor with I46A, A90W

% of WT hCD27 binding (geo mean FITC) (W90A): 96.4%
% of WT hCD27 binding (geo mean FITC) (Q15A): 7.6%
% of WT hCD27 binding (geo mean FITC) (G16A): 97.3%
% of WT hCD27 binding (geo mean FITC) (Q91A): 120%
% of WT hCD27 binding (geo mean FITC) (N88A): 116%
% of WT hCD27 binding (geo mean FITC) (V49A): 97%
% of WT hCD27 binding (geo mean FITC) (P44A): 90.5%
% of WT hCD27 binding (geo mean FITC) (S63A): 163%
% of WT hCD27 binding (geo mean FITC) (K31A): 138%
% of WT hCD27 binding (geo mean FITC) (I46A): 82.7%
Molecule: 1A4 (mouse IgG1) (antibody)

% of WT hCD27 binding (geo mean FITC) (W90A): 85.7%
% of WT hCD27 binding (geo mean FITC) (Q15A): 118%
% of WT hCD27 binding (geo mean FITC) (G16A): 102%
% of WT hCD27 binding (geo mean FITC) (Q91A): 111%
% of WT hCD27 binding (geo mean FITC) (N88A): 104%
% of WT hCD27 binding (geo mean FITC) (V49A): 92.1%
% of WT hCD27 binding (geo mean FITC) (P44A): 91.7%
% of WT hCD27 binding (geo mean FITC) (S63A): 149%
% of WT hCD27 binding (geo mean FITC) (K31A): 133%
% of WT hCD27 binding (geo mean FITC) (I46A): 82.7%
Molecule: 9F4 (mouse IgG2a) (antibody)

% of WT hCD27 binding (geo mean FITC) (W90A): 102%
% of WT hCD27 binding (geo mean FITC) (Q15A): 136%
% of WT hCD27 binding (geo mean FITC) (G16A): 108%
% of WT hCD27 binding (geo mean FITC) (Q91A): 136%
% of WT hCD27 binding (geo mean FITC) (N88A): 124%
% of WT hCD27 binding (geo mean FITC) (V49A): 99.8%
% of WT hCD27 binding (geo mean FITC) (P44A): 91%
% of WT hCD27 binding (geo mean FITC) (S63A): 141%
% of WT hCD27 binding (geo mean FITC) (K31A): 134%
% of WT hCD27 binding (geo mean FITC) (I46A): 75%
B1: Antibody hCD27.131A (mouse parental 131A) (antibody, V domains shown)
VH: QIQLVQSGPELKKPGETVKISCKASGYTFTNYGMNWVKQAPGKGLKWMGWINTNTGEPTYAEEFKGRFAFSLETSATTAYLQINNLKNEDTATYFCAREGDAMDYWGQGTSVTVSS
VL: QIVLTQSPAIMSASPGEKVTMTCSASSSVSYMHWYQQKSGTSPKRWIYDTSKLASGVPARFSGSGSGTSYSLTISSMEAEDAATYYCQQWNSYPFTFGSGTKLEIK
notes: mouse IgG1; also called mouse hCD27.131A

Reference: patent publication US20190300618A1 (Merck Sharp & Dohme, published 2019)
